Experimental data reported in publication doi:10.1101/2024.04.05.588290, “An optical aptamer-based cytokine nanosensor detects macrophage activation by bacterial toxins”.

Target: interleukin-6 (IL-6), human recombinant (Homo sapiens, UniProt P05231 30-212)
Assay: SWCNT near-infrared fluorescence quenching, (7,5) chirality; SWCNT complex, 5250 ng/mL IL-6, 1X PBS, 3 h; no response, p=0.65903; 0.5 mg/L SWCNT-ssDNA in 1X PBS (or 1X PBS + 10% FBS), 5250 ng/mL IL-6, 120 uL, triplicate, up to 180 min; pH and temperature not stated
Details: protein: commercial; label: noncovalently adsorbed on SWCNT

interleukin-6 (IL-6), human recombinant, sequence (P05231 30-212): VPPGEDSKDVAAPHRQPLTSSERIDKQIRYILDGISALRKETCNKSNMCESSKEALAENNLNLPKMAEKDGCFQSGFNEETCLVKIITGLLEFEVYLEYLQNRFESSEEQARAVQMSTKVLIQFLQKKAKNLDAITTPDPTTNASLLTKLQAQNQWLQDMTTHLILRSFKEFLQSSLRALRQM

GTGTGTGTGTGTGTGTGTGTGTGTGTGTGT (ssDNA) [(GT)15]: no binding.
